Source: publication PMC11271488, “The AKT2/SIRT5/TFEB pathway as a potential therapeutic target in non-neovascular AMD” (Nature Communications, 2024)

Molecular target: T1, Synaptotagmin Like 1 (SYTL1), on the HuProt v3.1 human proteome array (human, UniProt Q8IYJ3 1-562)
T1 construct: Synaptotagmin Like 1 (SYTL1), human; as arrayed on HuProt v3.1; source: spotted on the HuProt v3.1 human proteome array (CDI NextGen Proteomics)
T1 sequence (looked up): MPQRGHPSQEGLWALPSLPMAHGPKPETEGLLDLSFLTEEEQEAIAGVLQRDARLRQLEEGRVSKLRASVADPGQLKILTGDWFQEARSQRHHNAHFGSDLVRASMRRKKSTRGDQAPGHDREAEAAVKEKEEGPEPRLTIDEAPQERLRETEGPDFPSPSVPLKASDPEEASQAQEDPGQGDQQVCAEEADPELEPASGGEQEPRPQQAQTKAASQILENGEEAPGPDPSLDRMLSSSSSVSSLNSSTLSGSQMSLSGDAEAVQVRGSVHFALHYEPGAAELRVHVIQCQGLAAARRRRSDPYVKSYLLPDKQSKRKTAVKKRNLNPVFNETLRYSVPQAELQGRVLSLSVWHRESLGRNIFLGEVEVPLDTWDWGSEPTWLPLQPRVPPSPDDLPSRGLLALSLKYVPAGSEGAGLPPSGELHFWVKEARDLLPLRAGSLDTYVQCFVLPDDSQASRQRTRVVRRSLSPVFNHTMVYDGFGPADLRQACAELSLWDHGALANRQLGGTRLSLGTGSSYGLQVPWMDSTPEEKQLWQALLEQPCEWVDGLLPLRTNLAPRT
Experiment: peptide or protein array; HuProt v3.1 human proteome array probed with recombinant AKT2 at 1 ug/mL; GenePix analysis; only interactions with a Z-score above 6 considered
Conditions: both partners purified

binding result: binds
B1: recombinant AKT2 (RAC-beta serine/threonine-protein kinase) (enzyme, human, UniProt P31751 1-481, looked up)
chain: MNEVSVIKEGWLHKRGEYIKTWRPRYFLLKSDGSFIGYKERPEAPDQTLPPLNNFSVAECQLMKTERPRPNTFVIRCLQWTTVIERTFHVDSPDEREEWMRAIQMVANSLKQRAPGEDPMDYKCGSPSDSSTTEEMEVAVSKARAKVTMNDFDYLKLLGKGTFGKVILVREKATGRYYAMKILRKEVIIAKDEVAHTVTESRVLQNTRHPFLTALKYAFQTHDRLCFVMEYANGGELFFHLSRERVFTEERARFYGAEIVSALEYLHSRDVVYRDIKLENLMLDKDGHIKITDFGLCKEGISDGATMKTFCGTPEYLAPEVLEDNDYGRAVDWWGLGVVMYEMMCGRLPFYNQDHERLFELILMEEIRFPRTLSPEAKSLLAGLLKKDPKQRLGGGPSDAKEVMEHRFFLSINWQDVVQKKLLPPFKPQVTSEVDTRYFDDEFTAQSITITPPDRYDSLGLLELDQRTHFPQFSYSASIRE
notes: AKT2, RAC-beta serine/threonine-protein kinase; recombinant protein used as the probe on the HuProt v3.1 array; source: recombinant
